From patent publication US20210230248A1, “Multivalent pharmacophores for high avidity and overexpressed-target specific binding and uses thereof” (priority 2020, published 2021)
Positions count from the first letter of the chain named. Names and notes keep the numbering of the source. One block for each molecule: values may come before it. Where no end group is shown, it is not given here.

Key:
H1299 and HT-1080 cells [1] = test: Chemotaxis assay (fibronectin coated transwell); format: cell-based, human; conditions: 10% FBS chemoattractant, 16 h
Procedure: Chemotaxis assay was performed using BD BioCoat 24-well transwell with 8 μm pore size filter which is coated with fibronectin (Corning). For the study, H1299 and HT-1080 cells were detached from culture flasks with trypsin/EDTA, and then the trypsin was deactivated by adding the complete medium. The cells were washed with serum-free medium twice and resuspended at the final density of 50,000 cells in 500 μL DMEM medium supplemented with 0.5% BSA. The cells were treated with multivalent pharmacophores and uPAR blocking antibody for 1 h at 37° C. in 5% CO2 incubator. 650 μL of DMEM with 10% FBS was used as chemoattractant and added into the lower chamber. Serum-free DMEM medium was used as a negative control, and no drug treatment well was considered as 100% migration. After placing the upper chamber into the lower chamber, 500 μL cell suspensions were added to the upper chamber. 4-arm PEG-GFD, 6-arm PEG-GFD and uPAR blocking antibody, VIM5, with various concentrations were added in both upper and lower chambers. The transwell was incubated at 37° C. in 5% CO2 incubator for 16 h. […] The number of cells migrated past the filter was quantify by reading the solution in plate reader after transferring into a white 96-well plates.

H1299 and HT-1080 cells [2] = test: Matrigel invasion assay; format: cell-based, human; conditions: 10 nM, 24 h
Procedure: The migration of cells through Matrigel indicates the ability of the cells to digest the extracellular matrix during the process of migration. The Matrigel invasion assay is similar to the chemotaxis assay above except that the 8 μm pore size filter is coated with Matrigel. BD BioCoat Matrigel Invasion Chamber (Corning) was used for the assay with H1299 and HT-1080 cells. 4-arm PEG-GFD, 6-arm PEG-GFD and the blocking antibody VIM5 were used at the concentration of 10 nM. After 24 h treatment, the Matrigel along with the cells remaining on the upper surface of filter in the upper chamber was scraped off with a cotton swab. The migrated cells were measured with CellTiter-Glo as described above.

[3] = target: T1, uPAR overexpressing Hela cells (Homo sapiens, UniProt Q03405); test: Competitive binding assay on uPAR overexpressing Hela cells; conditions: ratio of IC50 values
T1 construct: endogenous in cells; host or cells: Hela cells
T1 sequence (Q03405 23-335): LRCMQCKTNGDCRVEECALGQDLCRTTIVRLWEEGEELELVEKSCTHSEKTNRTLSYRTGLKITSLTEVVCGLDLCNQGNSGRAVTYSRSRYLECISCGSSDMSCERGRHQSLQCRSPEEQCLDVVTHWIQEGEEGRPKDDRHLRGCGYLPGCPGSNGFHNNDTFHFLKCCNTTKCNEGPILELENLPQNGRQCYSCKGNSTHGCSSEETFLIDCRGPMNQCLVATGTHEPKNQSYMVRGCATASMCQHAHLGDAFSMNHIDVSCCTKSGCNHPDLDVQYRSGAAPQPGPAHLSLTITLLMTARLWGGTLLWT
Source text: This assay is to measure the binding avidity of multivalent PEG-GFD pharmacophores to uPAR overexpressing Hela cells in comparison to uPA. Hela cells express uPAR but not uPA (Rabbani et al., Neoplasia, 2010, 12(10); 778-88), and therefore competition from endogenous uPA can be excluded.
Mouse anti-uPAR (Clone VIM5) is an uPAR blocking antibody (Sillaber et al., J Biol Chem, 1997, 272(12):7824-32). The potency of multivalent PEG-GFD pharmacophores and native uPA to compete against the antibody in binding to the overexpressed uPAR on the surface of Hela cells is measured and compared in this assay.
Hela cells were detached from culture flasks by trypsin/EDTA, resuspended in complete culture medium in a 50 mL conical tube, and incubated for 1 h at 37° C. in 5% CO2 incubator to allow receptor recovery. PE-conjugated anti-uPAR antibody (Clone VIM5; Invitrogen) at the final concentration of 0.5 μg/100 μL (33.33 nM) was mixed with titrated concentrations of 4-arm PEG-GFD and 6-arm PEG-GFD, and recombinant human uPA (Biolegend) in Stain Buffer. The mixture was added into Hela cells (500,000 cells in 100 μL; final density). […] The fluorescent intensity of PE on Hela cells was quantified by flow cytometry and plotted against the titration of 4-arm PEG-GFD, 6-arm PEG-GFD and uPA. The binding avidity of multivalent PEG-GFD pharmacophores relative to native uPA can be calculated.

[4] = tested on: H1299, SW480, HT-1080 and PC3 cells; test: Cell adhesion assay on vitronectin coated plate; format: cell-based, human; conditions: four uPAR overexpressing cell lines; 3 h; various concentrations
Procedure: For adhesion of cancer cells to vitronectin, 96-well plate was coated overnight with vitronectin (Thermo Fisher Scientific) at 5 μg/mL in PBS at 4° C., 50 μL/well. The wells without coating were used as negative controls. The plate was then blocked with 3% MSD Blocking Buffer for 2 h at room temperature. Four uPAR overexpressing human cancer lines were used for the assay: non-small cell lung cancer line H1299, colorectal cancer line SW480, fibrosarcoma line HT-1080 and prostate cancer line PC3. The cells were detached from culture flasks by trypsin/EDTA, resuspended in complete culture medium in a 50 mL conical tube, and incubated for 1 h at 37° C. in 5% CO2 incubator to allow receptor recovery. Cells were then washed with serum-free medium and resuspended in DMEM medium with 0.5% BSA. 50,000 cells in 100 μL were plated into each well with various concentrations of 4-arm and 6-arm PEG-GFD pharmacophores, and uPAR blocking antibody, VIM5. The plates were incubated at 37° C. in 5% CO2 incubator for 3 h, and washed 4 times with PBS with 0.5% BSA. The number of adherent cells in each well was quantified by CellTiter-Glo (Promega).

[5] = target: T2, uPAR on cells (uPAR overexpressing Hela, HT-1080, H1299, SW480 and PC3 cells) (human, UniProt Q03405 23-305); test: competitive flow cytometry on uPAR overexpressing Hela cells against PE-VIM5 at ~33.33 nM
T2 construct: whole, on cells; also called CD87; overexpressed uPAR
T2 sequence (Q03405 23-305): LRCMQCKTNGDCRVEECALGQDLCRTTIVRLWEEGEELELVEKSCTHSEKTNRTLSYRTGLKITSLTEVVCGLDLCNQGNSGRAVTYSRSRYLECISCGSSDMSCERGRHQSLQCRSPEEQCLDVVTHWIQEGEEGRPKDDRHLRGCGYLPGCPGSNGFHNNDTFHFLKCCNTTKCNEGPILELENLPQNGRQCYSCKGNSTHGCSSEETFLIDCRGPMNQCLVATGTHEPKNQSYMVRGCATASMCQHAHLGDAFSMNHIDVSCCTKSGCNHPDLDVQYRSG
Procedure: Hela cells were detached from culture flasks by trypsin/EDTA, resuspended in complete culture medium in a 50 mL conical tube, and incubated for 1 h at 37° C. in 5% CO₂ incubator to allow receptor recovery. […] The mixture was added into Hela cells (500,000 cells in 100 μL; final density). After incubation on ice for 3 h with occasional mixing, the cells were washed to remove the unbound test reagents.

[6] = target: T3, CD47 overexpressing Jurkat cells (Homo sapiens, UniProt Q08722); test: Competitive binding assay on CD47 overexpressing Jurkat cells; conditions: for IC50: against FITC-conjugated anti-CD47 B6H12.2 at ~33.3 nM, 3 h on ice; for increase of avidity compared to SIRPα monomer: ratio of IC50 values
T3 construct: endogenous in cells; host or cells: Jurkat cells
T3 sequence (Q08722 19-323): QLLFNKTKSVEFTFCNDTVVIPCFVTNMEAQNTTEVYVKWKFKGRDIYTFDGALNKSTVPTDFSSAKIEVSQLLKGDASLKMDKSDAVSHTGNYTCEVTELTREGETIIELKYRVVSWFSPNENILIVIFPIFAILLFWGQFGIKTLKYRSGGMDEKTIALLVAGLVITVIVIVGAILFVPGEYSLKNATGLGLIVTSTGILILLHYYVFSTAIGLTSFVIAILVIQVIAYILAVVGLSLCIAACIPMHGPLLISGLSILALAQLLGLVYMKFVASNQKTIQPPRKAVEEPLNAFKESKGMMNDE
Procedure: This assay is to measure the binding avidity of multivalent PEG-SIRPα IgV pharmacophores to CD47 overexpressing Jurkat cells by competing against FITC-conjugated CD47 blocking antibody, and to compare the avidity to the affinity of wide-type SIRPα ectodomain.
FITC-conjugated mouse anti-human CD47 monoclonal antibody (Clone B6H12.2, Invitrogen) at the final concentration of 0.5 μg/100 μL (˜33.3 nM) was mixed with titrated concentration (from 0.04 nM to 10.5 μM in Stain Buffer) of SIRPα monomer (Acro Biosystems), 4-arm PEG-2K SIRPα IgV and 6-arm PEG-3.4K SIRPα IgV, both wide-type and Q67R mutant forms. The mixture was added into Jurkat cells (500,000 cells in 100 μL, final density). After incubation on ice for 3 h with occasional mixing, the cells were washed to remove the unbound reagents. The fluorescence intensity of FITC was quantified by flow cytometry. The increase of the binding activity for multivalent PEG-SIRPα IgV pharmacophores compared to SIRPα monomer can be calculated.

[7] = target: T4, human red blood cells (RBCs) (Homo sapiens, UniProt Q08722); test: Competitive binding assay on human red blood cells; conditions: either wide-type or mutant SIRPα IgV; antibody at ~33.3 nM; titration up to 200 nM
T4 construct: from tissue; host or cells: red blood cells from human whole blood of healthy donors
T4 sequence (Q08722 19-323): as above
Procedure: To assess the risks from binding of multivalent PEG-SIRPα IgV pharmacophores to normal RBCs and subsequent anemia as has been reported for many CD47 targeting agents, a similar competitive binding assay as (4) above is conducted using RBCs as the binding targets.
Human whole blood from healthy donors was drawn into sodium heparin tube. The blood was washed 3 times with PBS and diluted in Stain Buffer (0.5×10^6 RBCs in 100 μL, final density). The competitive binding was performed by incubating RBCs with FITC-conjugated CD47 blocking antibody (Clone B6H12.2, Invitrogen) at the final concentration of 0.5 μg/100 μL (˜33.3 nM) and titrated concentration of 4-arm, or 6-arm PEG-SIRPα IgV as described above, or an unconjugated CD47 blocking antibody (B6H12.2, Invitrogen). A mouse isotype IgG1 was used as a negative control. RBCs were incubated with the reagents on ice for 3 h, mixing occasionally. After washing, the fluorescence intensity of FITC on RBCs was quantified by flow cytometry.

- IC50 [6]: 8.12 nM
- increase of avidity compared to SIRPα monomer [6]: about 995 folds
B3: wide-type 4-arm PEG-SIRPα IgV: 4-arm PEG-2K conjugated with wide-type SIRPα IgV-like domain (conjugate)
chain: EEELQVIQPDKSVLVAAGETATLRCTATSLIPVGPIQWFRGAGPGRELIYNQKEGHFPRVTTVSDLTKRNNMDFSIRIGNITPADAGTYYCVKFRKGSPDDVEFKSGAGTELSVRA

- IC50 [6]: 0.723 nM
- increase of avidity compared to SIRPα monomer [6]: ~11,174 folds
B4: wide-type 6-arm PEG-SIRPα IgV: 6-arm PEG-3.4K conjugated with wide-type SIRPα IgV-like domain (conjugate)
chain: B3 chain

- IC50 [6]: 10.9 nM
B5: mutant 4-arm PEG-SIRPα IgV: 4-arm PEG-2K conjugated with Q67R mutant SIRPα IgV-like domain (conjugate)
chain: B3 chain with Q37R

- IC50 [6]: 1.06 nM
B6: mutant 6-arm PEG-SIRPα IgV: 6-arm PEG-3.4K conjugated with Q67R mutant SIRPα IgV-like domain (conjugate)
chain: B3 chain with Q37R

The next lines start with the molecule.

Molecule: 4-arm PEG-GFD: growth factor-like domain of uPA (first 43 amino acids) conjugated to 4-arm PEG-2K (VPSNCDCLNGGTCVSNKYFSNIHWCNCPKKFGGQHCEIDKSKT; not fully specified (C-terminus); ends and bridges not checked; also: conjugated to 4-arm PEG-2K (site not given here))
- migration of cells to the lower chamber (chemotaxis) (H1299 and HT-1080 cells [1]): significantly reduced migration
- Matrigel invasion (H1299 and HT-1080 cells [2]): significantly inhibited
- fold increase in binding activity relative to native uPA [3]: ~31 fold
- inhibition of adhesion to vitronectin [4]: inhibited the adhesion of all four cell lines to vitronectin dose-dependently

B1: 4-arm PEG-GFD (designed binder)
chain: VPSNCDCLNGGTCVSNKYFSNIHWCNCPKKFGGQHCEIDKSKT
modifications: not fully specified (C-terminus); ends and bridges not checked; also: four GFD units on 4-arm PEG-2K
notes: Four GFD units on 4-arm PEG-2K; Expressed in E. coli; also called tetravalent PEG-GFD pharmacophore; 4-arm PEG growth factor-like domain of uPA
- IC50 [5]: 1.14 nM

B2: 6-arm PEG-GFD (designed binder)
chain: B1 chain
modifications: not fully specified (C-terminus); ends and bridges not checked; also: six GFD units on 6-arm PEG-3.4K
notes: Six GFD units on 6-arm PEG-3.4K; also called hexavalent PEG-GFD pharmacophore; 6-arm PEG growth factor-like domain of uPA
- IC50 [5]: 0.412 nM

B7: 4-arm PEG-SIRPα IgV: 4 units of SIRPα IgV-like domain conjugated to 4-arm PEG-2K; wide-type or Q67R mutant not specified (conjugate)
chain: B3 chain
- competitive binding to RBCs against FITC-conjugated CD47 blocking antibody [7]: did not compete

B8: 6-arm PEG-SIRPα IgV: 6 units of SIRPα IgV-like domain conjugated to 6-arm PEG-3.4K; wide-type or Q67R mutant not specified (conjugate)
chain: B3 chain
- competitive binding to RBCs against FITC-conjugated CD47 blocking antibody [7]: did not compete
